Biological target: T1, Macrophage stimulating protein receptor (RON - Recepteur d' Origine Nantais), human (human, UniProt Q04912 25-1400)
T1 construct: whole, on cells; Endogenous RON of human cancer cell lines (HCT116, HT29, T47D and others) or RON transfected into H1299 cells; In Western blots and immunoprecipitations it comes from cell lysates; also called human RON receptor tyrosine kinase; MST1R
Assay: immunofluorescence on PFA fixed HCT116 cells
Protocol: Cells were stained with DAPI for nuclear visualization and anti-mouse conjugate to 488 was used as a secondary mouse antibody.
The 4% paraformaldehyde fixed HCT116 and TKO cells were subjected to permeabilization with 0.4% Triton X-100 for 20 minutes. After rinsing with PBS, cells were blocked with 5% BSA in PBSTritonX (PBSTX) for 20 min, followed by overnight incubation in hybridoma supernatant at 4° C. IgGs were detected using 1:1000 […] Alexaflor 488 Donkey anti-mouse IgG conjugated (Life technologies) in PBSTX with 1% BSA. Subsequently, cells were counterstained with DAPI, and viewed with Incell Analyzer (GE Healthcare).

B1: 7G8 (antibody, V domains shown)
VH: EVQLEQSGGGLVQPGGSLKLSCAASGFTFNTYTMSWVRQTPEKRLEWVAYISNGGGSTYYPDTVKGRFTISRDNAKNTLYLQMSSLKSEDTAMYYCARGYRYAAMDYWGQGTSVTVSS
VL: DIVMTQTTATLSVTPGDGVSLSCRASQSINNNLHWYQQKSHESPRLLIKFASQSISGIPSRFSGSGSGTDFTLSINSVETEDFGMYFCQQSNSWPLTFGAGTKLELK
notes: Mouse monoclonal antibody from a hybridoma (Balb/c mice immunised with truncated human RON-GST); kappa light chain; Tested as hybridoma supernatant or purified mAb; also called mAb 7G8; anti-RON mouse mAb 7G8
binding result: binds

Reference: US20190194309A1 (AGENCY FOR SCIENCE TECHNOLOGY AND RESEARCH, published 2019)
